Data reported in patent US20180305423A1 (OKLAHOMA MEDICAL RESEARCH FOUNDATION, published 2018).

B1: Epsin 1 (endogenous, HUVEC^αvβ3 cells) (other, human, UniProt Q9Y6I3 1-576, looked up)
chain: MSTSSLRRQMKNIVHNYSEAEIKVREATSNDPWGPSSSLMSEIADLTYNVVAFSEIMSMIWKRLNDHGKNWRHVYKAMTLMEYLIKTGSERVSQQCKENMYAVQTLKDFQYVDRDGKDQGVNVREKAKQLVALLRDEDRLREERAHALKTKEKLAQTATASSAAVGSGPPPEAEQAWPQSSGEEELQLQLALAMSKEEADQPPSCGPEDDAQLQLALSLSREEHDKEERIRRGDDLRLQMAIEESKRETGGKEESSLMDLADVFTAPAPAPTTDPWGGPAPMAAAVPTAAPTSDPWGGPPVPPAADPWGGPAPTPASGDPWRPAAPAGPSVDPWGGTPAPAAGEGPTPDPWGSSDGGVPVSGPSASDPWTPAPAFSDPWGGSPAKPSTNGTTAAGGFDTEPDEFSDFDRLRTALPTSGSSAGELELLAGEVPARSPGAFDMSGVRGSLAEAVGSPPPAATPTPTPPTRKTPESFLGPNAALVDLDSLVSRPGPTPPGAKASNPFLPGGGPATGPSVTNPFQPAPPATLTLNQLRLSPVPPVPGAPPTYISPLGGGPGLPPMMPPGPPAPNTNPFLL
notes: also called endogenous epsin 1
B2: Epsin 1 (endogenous, MAEC and 3T3-L1 cells) (other, mouse, UniProt Q80VP1 1-575, looked up)
chain: MSTSSLRRQMKNIVHNYSEAEIKVREATSNDPWGPSSSLMSEIADLTYNVVAFSEIMSMIWKRLNDHGKNWRHVYKAMTLMEYLIKTGSERVSQQCKENMYAVQTLKDFQYVDRDGKDQGVNVREKAKQLVALLRDEDRLREERAHALKTKEKLAQTATASSAAVGSGPPPEAEQAWPQSSGEEELQLQLALAMSKEEADQPPSCGPEDDVQLQLALSLSREEHDKEERIRRGDDLRLQMAIEESKRETGGKEESSLMDLADVFTTPAPPQASDPWGGPASVPTAVPVAAAASDPWGGPAVPPAADPWGGAAPTPASGDPWRPAAPTGPSVDPWGGTPAPAAGEGPTPDPWGSSDGGAPVSGPPSSDPWAPAPAFSDPWGGSPAKPSSNGTAVGGFDTEPDEFSDFDRLRTALPTSGSSTGELELLAGEVPARSPGAFDMSGVGGSLAESVGSPPPAATPTPTPPTRKTPESFLGPNAALVDLDSLVSRPGPTPPGSKASNPFLPSGAPPTGPSVTNPFQPAPPATLTLNQLRLSPVPPVPGAPPTYISPLGGGPGLPPMMPPGPPAPNTNPFLL
notes: also called epsins

Experiments:
[1] = target: T1, VEGFR2 (endogenous, HUVEC^αvβ3 cells) (human, UniProt P35968 20-1356); test: co-IP with anti-VEGFR2 from HUVECαvβ3 cells, blot for Epn1, with quantification [panel B]
T1 construct: whole, on cells
T1 sequence (P35968 20-1356): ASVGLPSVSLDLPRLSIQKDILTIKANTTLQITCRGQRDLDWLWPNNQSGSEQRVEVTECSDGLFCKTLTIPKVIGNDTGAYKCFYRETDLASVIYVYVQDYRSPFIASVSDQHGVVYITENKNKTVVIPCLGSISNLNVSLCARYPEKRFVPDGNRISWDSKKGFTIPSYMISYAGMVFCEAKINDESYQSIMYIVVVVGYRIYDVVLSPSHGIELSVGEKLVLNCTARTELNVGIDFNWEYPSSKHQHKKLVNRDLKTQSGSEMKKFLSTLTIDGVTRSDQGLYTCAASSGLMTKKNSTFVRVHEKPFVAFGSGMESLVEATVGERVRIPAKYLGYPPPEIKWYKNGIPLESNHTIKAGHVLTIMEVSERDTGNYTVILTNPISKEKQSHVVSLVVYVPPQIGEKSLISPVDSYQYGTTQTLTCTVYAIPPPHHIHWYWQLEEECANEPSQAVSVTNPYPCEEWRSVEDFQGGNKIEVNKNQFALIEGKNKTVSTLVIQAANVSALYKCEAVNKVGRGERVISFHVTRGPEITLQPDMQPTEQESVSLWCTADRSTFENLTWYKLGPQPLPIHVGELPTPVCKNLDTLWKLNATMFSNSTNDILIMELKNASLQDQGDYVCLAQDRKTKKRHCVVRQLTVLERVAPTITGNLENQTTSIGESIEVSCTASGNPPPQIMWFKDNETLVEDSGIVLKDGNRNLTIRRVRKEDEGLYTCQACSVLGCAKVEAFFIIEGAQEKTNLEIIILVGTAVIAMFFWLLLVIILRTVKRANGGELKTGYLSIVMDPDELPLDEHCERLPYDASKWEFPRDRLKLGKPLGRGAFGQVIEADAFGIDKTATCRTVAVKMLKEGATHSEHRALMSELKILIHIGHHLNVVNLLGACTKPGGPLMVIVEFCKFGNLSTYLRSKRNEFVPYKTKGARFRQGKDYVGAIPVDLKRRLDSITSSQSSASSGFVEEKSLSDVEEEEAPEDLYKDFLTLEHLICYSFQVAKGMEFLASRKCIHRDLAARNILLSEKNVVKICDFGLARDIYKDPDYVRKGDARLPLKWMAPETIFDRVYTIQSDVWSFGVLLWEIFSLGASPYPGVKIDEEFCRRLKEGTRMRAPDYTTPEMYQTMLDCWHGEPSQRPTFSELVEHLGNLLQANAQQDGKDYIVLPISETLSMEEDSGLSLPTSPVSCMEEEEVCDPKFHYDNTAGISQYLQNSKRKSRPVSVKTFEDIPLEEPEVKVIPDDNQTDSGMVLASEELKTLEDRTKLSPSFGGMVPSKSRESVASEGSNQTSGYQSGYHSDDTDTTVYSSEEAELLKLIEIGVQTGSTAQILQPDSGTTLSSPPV

[2] = target: T2, IP3R1 (IP3 receptor 1, ITPR1) (mouse, UniProt P11881 1-2749, limits assumed); test: IP with epsin 1 antibody from oxLDL-treated MAEC, gel for mass spectrometry [panel A]
T2 construct: also called IP3 Receptors
T2 sequence (P11881 whole entry): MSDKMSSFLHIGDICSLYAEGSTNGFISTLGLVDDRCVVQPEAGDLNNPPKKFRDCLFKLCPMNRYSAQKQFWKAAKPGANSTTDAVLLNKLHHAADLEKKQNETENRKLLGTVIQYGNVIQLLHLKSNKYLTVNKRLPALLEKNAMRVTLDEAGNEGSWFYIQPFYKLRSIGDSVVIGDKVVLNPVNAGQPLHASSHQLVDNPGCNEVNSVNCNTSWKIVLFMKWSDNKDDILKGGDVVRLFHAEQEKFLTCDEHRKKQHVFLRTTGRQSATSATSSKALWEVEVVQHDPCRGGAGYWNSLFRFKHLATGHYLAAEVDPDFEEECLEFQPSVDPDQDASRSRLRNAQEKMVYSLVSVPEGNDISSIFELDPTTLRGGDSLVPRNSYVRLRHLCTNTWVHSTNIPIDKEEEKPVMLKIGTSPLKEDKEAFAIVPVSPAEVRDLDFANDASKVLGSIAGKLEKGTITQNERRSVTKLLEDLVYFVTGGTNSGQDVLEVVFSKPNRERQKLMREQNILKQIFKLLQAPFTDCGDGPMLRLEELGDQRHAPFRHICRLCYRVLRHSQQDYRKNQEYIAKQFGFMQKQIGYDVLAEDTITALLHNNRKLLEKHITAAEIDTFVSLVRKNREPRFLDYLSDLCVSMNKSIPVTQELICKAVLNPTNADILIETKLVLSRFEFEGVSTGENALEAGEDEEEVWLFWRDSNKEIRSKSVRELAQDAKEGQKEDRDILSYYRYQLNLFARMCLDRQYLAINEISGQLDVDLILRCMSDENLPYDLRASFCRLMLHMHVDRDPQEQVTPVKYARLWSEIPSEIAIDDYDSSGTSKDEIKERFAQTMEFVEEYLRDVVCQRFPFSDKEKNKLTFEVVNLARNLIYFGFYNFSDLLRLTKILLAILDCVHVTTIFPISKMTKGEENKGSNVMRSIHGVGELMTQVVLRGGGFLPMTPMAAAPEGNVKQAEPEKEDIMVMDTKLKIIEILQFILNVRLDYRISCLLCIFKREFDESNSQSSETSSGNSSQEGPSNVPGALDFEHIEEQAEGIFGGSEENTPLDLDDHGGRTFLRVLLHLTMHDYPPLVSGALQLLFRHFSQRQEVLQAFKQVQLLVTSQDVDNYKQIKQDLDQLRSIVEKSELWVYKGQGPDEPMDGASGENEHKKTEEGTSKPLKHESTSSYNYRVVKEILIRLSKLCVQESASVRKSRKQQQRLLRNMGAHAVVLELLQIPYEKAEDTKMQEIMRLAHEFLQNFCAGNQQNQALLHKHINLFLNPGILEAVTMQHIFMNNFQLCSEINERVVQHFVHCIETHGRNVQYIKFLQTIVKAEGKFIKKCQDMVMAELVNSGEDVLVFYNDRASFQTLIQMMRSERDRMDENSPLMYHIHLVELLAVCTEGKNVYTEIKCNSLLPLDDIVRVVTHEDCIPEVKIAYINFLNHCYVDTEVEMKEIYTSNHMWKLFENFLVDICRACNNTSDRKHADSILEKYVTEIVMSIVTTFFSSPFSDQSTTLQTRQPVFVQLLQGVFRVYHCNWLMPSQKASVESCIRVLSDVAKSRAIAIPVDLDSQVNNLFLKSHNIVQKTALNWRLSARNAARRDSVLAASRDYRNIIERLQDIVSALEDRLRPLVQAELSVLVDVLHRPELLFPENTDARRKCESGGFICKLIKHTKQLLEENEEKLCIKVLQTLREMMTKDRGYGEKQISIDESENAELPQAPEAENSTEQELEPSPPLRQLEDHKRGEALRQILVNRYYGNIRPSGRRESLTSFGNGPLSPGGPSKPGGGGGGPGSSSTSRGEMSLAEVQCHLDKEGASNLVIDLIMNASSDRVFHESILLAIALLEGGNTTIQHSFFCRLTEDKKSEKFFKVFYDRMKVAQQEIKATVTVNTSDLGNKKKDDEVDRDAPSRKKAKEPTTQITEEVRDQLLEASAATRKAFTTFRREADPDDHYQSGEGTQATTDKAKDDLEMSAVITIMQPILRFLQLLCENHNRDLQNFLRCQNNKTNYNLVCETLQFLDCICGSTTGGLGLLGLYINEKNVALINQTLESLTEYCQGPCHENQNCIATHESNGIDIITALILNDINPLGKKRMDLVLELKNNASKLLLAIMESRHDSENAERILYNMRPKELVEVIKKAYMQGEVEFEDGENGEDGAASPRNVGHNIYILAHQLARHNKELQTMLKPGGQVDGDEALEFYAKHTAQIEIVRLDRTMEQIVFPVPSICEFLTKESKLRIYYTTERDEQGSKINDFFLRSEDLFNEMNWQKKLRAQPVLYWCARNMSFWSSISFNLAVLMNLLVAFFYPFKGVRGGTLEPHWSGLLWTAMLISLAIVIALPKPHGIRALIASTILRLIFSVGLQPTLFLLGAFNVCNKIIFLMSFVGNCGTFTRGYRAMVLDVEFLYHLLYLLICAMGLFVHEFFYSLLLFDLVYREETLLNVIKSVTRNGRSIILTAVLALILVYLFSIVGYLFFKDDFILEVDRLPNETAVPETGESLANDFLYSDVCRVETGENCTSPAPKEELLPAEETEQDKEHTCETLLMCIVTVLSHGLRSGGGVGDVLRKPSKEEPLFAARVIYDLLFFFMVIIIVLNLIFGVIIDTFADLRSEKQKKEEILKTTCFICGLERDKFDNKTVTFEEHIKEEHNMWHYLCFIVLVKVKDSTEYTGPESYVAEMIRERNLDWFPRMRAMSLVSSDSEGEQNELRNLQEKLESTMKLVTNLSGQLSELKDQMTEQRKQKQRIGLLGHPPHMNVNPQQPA

[3] = target: T3, IRS1 (insulin receptor substrate) (UniProt P35569 1-1233); test: co-IP with anti-epsin 1 from 3T3-L1 pre-adipocytes with or without insulin, blot for IRS1
T3 sequence (looked up): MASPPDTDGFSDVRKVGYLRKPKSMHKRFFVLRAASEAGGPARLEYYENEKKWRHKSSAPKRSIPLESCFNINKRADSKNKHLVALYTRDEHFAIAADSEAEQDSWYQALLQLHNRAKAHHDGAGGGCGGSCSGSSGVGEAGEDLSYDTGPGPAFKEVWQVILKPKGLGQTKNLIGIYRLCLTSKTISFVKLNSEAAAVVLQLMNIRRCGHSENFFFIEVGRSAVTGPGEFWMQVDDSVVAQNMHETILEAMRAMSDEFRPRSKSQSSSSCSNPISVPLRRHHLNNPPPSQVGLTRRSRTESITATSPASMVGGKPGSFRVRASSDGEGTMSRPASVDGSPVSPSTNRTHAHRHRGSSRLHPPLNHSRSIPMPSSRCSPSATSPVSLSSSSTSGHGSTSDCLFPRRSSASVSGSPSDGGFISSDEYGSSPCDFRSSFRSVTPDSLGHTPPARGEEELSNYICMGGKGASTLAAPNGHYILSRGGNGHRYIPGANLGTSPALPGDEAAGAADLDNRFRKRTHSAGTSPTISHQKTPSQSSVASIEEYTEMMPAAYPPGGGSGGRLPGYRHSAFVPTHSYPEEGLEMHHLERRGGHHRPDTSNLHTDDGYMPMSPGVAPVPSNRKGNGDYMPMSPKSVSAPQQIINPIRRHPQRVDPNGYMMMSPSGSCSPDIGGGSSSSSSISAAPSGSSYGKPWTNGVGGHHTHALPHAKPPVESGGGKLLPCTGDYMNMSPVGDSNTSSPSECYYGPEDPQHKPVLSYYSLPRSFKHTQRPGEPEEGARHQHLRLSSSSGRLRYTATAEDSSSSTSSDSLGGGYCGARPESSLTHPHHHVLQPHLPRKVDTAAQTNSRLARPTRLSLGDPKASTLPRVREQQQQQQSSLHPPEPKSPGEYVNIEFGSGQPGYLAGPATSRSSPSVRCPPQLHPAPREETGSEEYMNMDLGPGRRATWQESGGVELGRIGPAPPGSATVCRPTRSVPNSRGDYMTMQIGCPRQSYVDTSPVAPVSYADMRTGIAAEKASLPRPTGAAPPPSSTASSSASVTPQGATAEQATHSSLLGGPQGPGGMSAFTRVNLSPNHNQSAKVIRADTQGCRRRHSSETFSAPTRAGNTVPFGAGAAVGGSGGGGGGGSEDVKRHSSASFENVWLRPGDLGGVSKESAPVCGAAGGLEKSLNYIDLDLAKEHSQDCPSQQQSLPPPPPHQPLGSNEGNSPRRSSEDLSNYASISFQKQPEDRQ

| Binder | binding result [1] | binding result [2] | binding result [3] |
| --- | --- | --- | --- |
| B1 | binds | – | – |
| B2 | – | binds | binds |
